This series deals with the molecule itself. The experiment in a line: cryo-EM structure.

Here are results for one protein from publication PMC7546529 (Nature microbiology, 2020).

B1: portal protein (BBRF1 gene-encoded portal complex) (natural protein)
chain: MFNMNVDESASGALGSSAIPVHPTPASVRLFEILQGKYAYVQGQTIYANLRNPGVFSRQVFTHLFKRAISHCTYDDVLHDWNKFEACIQKRWPSDDSCASRFRESTFESWSTTMKLTVRDLLTTNIYRVLHSRSVLSYERYVDWICATGMVPAVKKPITQELHSKIKSLRDRCVCRELGHERTIRSIGTELYEATKEIIESLNSTFIPQFTEVTIEYLPRSDEYVAYYCGRRIRLHVLFPPAIFAGTVTFDSPVQRLYQNIFMCYRTLEHAKICQLLNTAPLKAIVGHGGRDMYKDILAHLEQNSQRKDPKKELLNLLVKLSENKTISGVTDVVEEFITDASNNLVDRNRLFGQPGETAAQGLKKKVSNTVVKCLTDQINEQFDQINGLEKERELYLKKIRSMESQLQASLGPGGNNPAASAPAAVAAEAASVDILTGSTASAIEKLFNSPSASLGARVSGHNESILNSFVSQYIPPSREMTKDLTELWESELFNTFKLTPVVDNQGQRLYVRYSSDTISILLGPFTYLVAELSPVELVTDVYATLGIVEIIDELYRSSRLAIYIEDLGRKYCPASATGGDHGIRQAPSARGDTEPDHAKSKPARDPPPGAGS
Turning to B1, the stoichiometry N (in general, the number of molecules, sites or subunits per partner or assembly) was found to be 12.
